This data set concerns the molecule itself. Description: SEC; Superdex 200 Increase 10/300 GL; recombinant full-length FliC proteins after NiNTA, PBS buffer.

B1: full-length FliC Δ204–205 of P. aeruginosa PAO1, recombinant (natural protein)
chain: MALTVNTNIASLNTQRNLNASSNDLNTSLQRLTTGYRINSAKDDAAGLQISNRLSNQISGLNVATRNANDGISLAQTAEGALQQSTNILQRIRDLALQSANGSNSDADRAALQKEVAAQQAELTRISDTTTFGGRKLLDGSFGTTSFQVGSNAYETIDISLQNASASAIGSYQVGSNGAGTVASVAGTATASGIASGTVNLVGQVKNIAIAAGDSAKAIAEKMDGAIPNLSARARTVFTADVSGVTGGSLNFDVTVGSNTVSLAGVTSTQDLADQLNSNSSKLGITASINDKGVLTITSATGENVKFGAQTGTATAGQVAVKVQGSDGKFEAAAKNVVAAGTAATTTIVTGYVQLNSPTAYSVSGTGTQASQVFGNASAAQKSSVASVDISTADGAQNAIAVVDNALAAIDAQRADLGAVQNRFKNTIDNLTNISENATNARSRIKDTDFAAETAALSKNQVLQQAGTAILAQANQLPQAVLSLLR
notes: Cloned in pET28-a with a C-terminal polyhistidine tag; source: E. coli BL21(DE3), purified (NiNTA, size-exclusion chromatography)
Broadly, the stoichiometry N is a count of units in the complex or per binding partner. As for B1, the “stoichiometry N” value was determined as 2.

The values are drawn from paper PMC10256154, “An unbroken network of interactions connecting flagellin domains is required for motility in viscous environments” (PLOS Pathogens, 2023).
